From the supplement of paper PMC10899765

Key:
Settings in all cases: 20 nM; 72 h
MCF10A [1] = assay: 5+ nucleoli phenotype percent effect (relative to siNT 0% and siKIF11 100%); higher = more cells with five or more nucleoli
Experimental: (§1)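 After 72 h, cells were fixed and stained with Hoechst and anti-fibrillarin, and nucleoli per nucleus were counted with CellProfiler. Values are plate-adjusted percent effect for the one-nucleolus and 5+ nucleoli phenotypes, normalised to siNT (0%) and to the positive controls siNOL11 or siKIF11 (100%), as the mean of biological triplicates. Percent viability is the nuclei count relative to siNT.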

MCF10A [2] = assay: percent viability (nuclei count relative to siNT); higher = more viable cells
Experimental: as §1

MCF10A [3] = assay: one-nucleolus phenotype percent effect (relative to siNT 0% and siNOL11 100%); higher = more cells with one nucleolus (ribosome biogenesis inhibition)
Experimental: as §1

Sequence	5+ nucleoli phenotype percent effect (MCF10A [1]) [%]	percent viability (MCF10A [2]) [%]	one-nucleolus phenotype percent effect (MCF10A [3]) [%]
UGAUGGAUAAAAGACUACAUAUU [hsa-miR-3134]	-19.7	27.6	23.3
AAUGACACGAUCACUCCCGUUGA [hsa-miR-425-5p]	16.6	74.9	-5.83
AGGACUGGACUCCCGGCAGCCC [hsa-miR-4515]	-14.9	37.2	15.9
CAAAAACUGCAAUUACUUUCA [hsa-miR-548ae]	38.6	153	-34.4
UUUCUCUCUCCACUUCCUCAG [hsa-miR-6833-3p]	22.2	28.4	-1.79
ACACAUGGGUGGCUGUGGCCU [hsa-miR-4717-3p]	24.6	66.4	-12.1
CCCCGGUGUUGGGGCGCGUCUGC [hsa-miR-4783-3p]	13.9	49.5	-13
UUUUCAACUCUAAUGGGAGAGA [hsa-miR-1305]	-6.71	72.2	9.11
AUCACACAAAGGCAACUUUUGU [hsa-miR-377-3p]	-2.87	129	-9.96
AAUCAUGUGCAGUGCCAAUAUG [hsa-miR-96-3p]	24.5	28.5	1.6
UGAGCCCCUGUGCCGCCCCCAG [hsa-miR-1225-3p]	19.9	98.1	-16.7
UCAGCAUUCAUUGGCACCAGAGA [hsa-miR-7157-5p]	-18.8	30.6	13.5
CAAAAGUGAUCGUGGUUUUUG [hsa-miR-548t-5p]	9.99	51.5	-10.3
AAAAACUGAGACUACUUUUGCA [hsa-miR-548e]	40.3	140	-28.9
AAAGACCCAUUGAGGAGAAGGU [hsa-miR-3667-5p]	-13.6	99.1	11.5
UGUAGGCAUGAGGCAGGGCCCAGG [hsa-miR-6806-5p]	44.5	32.5	-16.3
UGAGGGACCCAGGACAGGAGA [hsa-miR-6875-5p]	-0.911	29	13.7
ACAUCCUGCUCCACAGGGCAGAGG [hsa-miR-4793-5p]	-0.984	52.3	-10.7
AUCAUGAUGGGCUCCUCGGUGU [hsa-miR-433]	-11.3	63.2	-2.79
CCUGUGGGCCACCUAGUCACCAA [hsa-miR-134-3p]	-15.2	44.8	8.84
UCCCUCCUUCUGUCCCCACAG [hsa-miR-4667-3p]	-12.9	71.8	-2.78
UUGCUCUGCUCCCCCGCCCCCAG [hsa-miR-6805-3p]	43.1	36.2	-15.8
UGCUAGUCUGGACUGAUAUGGU [hsa-miR-8086]	-8.54	31.7	-8.07
AGGCAGGGGCUGGUGCUGGGCGGG [hsa-miR-4763-3p]	5.7	52.2	9.32

Sequence	5+ nucleoli phenotype percent effect (MCF10A [1]) [%]	percent viability (MCF10A [2]) [%]	one-nucleolus phenotype percent effect (MCF10A [3]) [%]
UGAGGUAGUAAGUUGUAUUGUU [hsa-miR-98-5p]	44.8	30	-13
UGGCGGCGGUAGUUAUGGGCUU [hsa-miR-4467]	-36	30.8	39.9
AAUAUUAUACAGUCAACCUCU [hsa-miR-656]	6.28	66.6	3.93
CUCCUCCCCUGCCUGGCCCAG [hsa-miR-6749-3p]	0.0227	48.8	-2.87
GUGAGGGACUGGGAUUUGUGG [hsa-miR-6834-5p]	23.5	81.4	-28.7
GAAUAUGGGUAUAUUAGUUUGG [hsa-miR-5583-3p]	43.7	65.4	-14.1
AAUUUGGUUUCUGAGGCACUUAGU [hsa-miR-5002-5p]	1.85	32.2	27.3
CUGUCCUAAGGUUGUUGAGUU [hsa-miR-676-3p]	29.3	20.8	-12
CUAGACUGAAGCUCCUUGAGG [hsa-miR-151a-3p]	-6.07	66.5	-1.52
UCUCCCAACCCUUGUACCAGUG [hsa-miR-150-5p]	26.7	224	-2.57
UCACAGUGAACCGGUCUCUUU [hsa-miR-128]	-27.9	81.7	12.2
CGCCUGCCCAGCCCUCCUGCU [hsa-miR-4763-5p]	-11.3	38.1	11.6
AGGACCUUCCCUGAACCAAGGA [hsa-miR-659-5p]	-33.7	40.3	34.3
ACCGUGGCUUUCGAUUGUUACU [hsa-miR-132-5p]	-7.44	68.8	-1.09
GAGCUUGGUCUGUAGCGGUU [hsa-miR-4453]	-29.1	9.97	33.6
GCUGGGAAGGCAAAGGGACGU [hsa-miR-204-3p]	24.5	49.7	-9.16
ACUGGGUAGGUGGGGCUCCAGG [hsa-miR-6861-5p]	-15.5	31.9	6.88
AGCAAAAUAAGCAAAUGGAAAA [hsa-miR-1468-3p]	29.6	128	-19.1
AAUCACUAACCACACGGCCAGG [hsa-miR-34c-3p]	13.7	70.3	-3.51
ACCUGCCAGCACCUCCCUGCAG [hsa-miR-4722-3p]	-32.2	53.9	10.5
CUUGGCACCUAGCAAGCACUCA [hsa-miR-1271-5p]	68.8	91.1	-2.87
AGGAGGGAAGGGGCUGAGAACAGGA [hsa-miR-6797-5p]	33.9	80.7	-10.1
UCUGAGGCCUGCCUCUCCCCA [hsa-miR-4649-3p]	-6.15	54.4	23.9
